# Experimental data from patent US20120207673A1 (GARVAN INSTITUTE OF MEDICAL RESEARCH, published 2012).
# B1: HEL4 VH (other)
# VH: QVQLLESGGGLVQPGGSLRLSCAASGFRISDEDMGWVRQAPGKGLEWVSSIYGPSGSTYYADSVKGRFTISRDNSKNTLYLQMNSLRAEDTAVYYCASALEPLSEPLGFWGQGTLVTVSS
# Target: T1, protein A (UniProt P38507 37-477)
# T1 construct: also called Protein A superantigen
# Experiment: phage ELISA on coated protein A; signal after 80 C 10 min then 4 C 10 min as % of the untreated sample (heat/cool assay)
binder,measurement,value
B1,Retained binding to protein A,88%
